Reference: article doi:10.1101/2023.06.23.546255

How the values were obtained:
[1] = target: chicken Tapasin (chTapasin), luminal domain (chicken (Gallus gallus)); assay: NMR chemical shift perturbation
[2] = target: chicken Tapasin (chTapasin), luminal domain (chicken (Gallus gallus)); assay: SPR
[3] = target: _(FITC)…, fluorescently labeled high-affinity peptide; assay: fluorescence polarisation

lifetime of the complex [1]	Kd [2]	Kd [3]	Substance
> 200 ms	1200 nM	–	open HLA-B*37:01 (G120C)/β2m (H31C), UV-irradiated (empty) (from UniProt P61769 21-119) (complex)
–	–	5.5 nM	open B*37:01/chTapasin complex (empty) (from UniProt P61769 21-119)
